59 sequences from the Immune Epitope Database (IEDB) can be followed below.

Some targets named below: HLA-A*02:06; HLA-A*02:03; HLA-A*02:02; HLA-A*11:01; HLA-A*33:01; HLA-A*03:01; HLA-A*68:01; HLA-A*31:01.
What all share (experiment): IEDB peptide-MHC binding, purified MHC/competitive/radioactivity; filed as Kd, often an IC50 or EC50 that approximates it; ≥ and ≤ were set here for values at or beyond the usual limits of such assays
The mark [1] stands for this setting: source organism: Vaccinia virus WR.
Setting [2] is: source organism: SARS coronavirus Tor2.
Setting [3] is: source organism: Dengue virus 2 Jamaica/1409/1983.
Where [4] appears, read: source organism: Dengue virus 2 16681-PDK53.
The mark [5] stands for this setting: source organism: Vaccinia virus Copenhagen.
[6] abbreviates: source organism: Human immunodeficiency virus type 1 BH10.

Usually Kd stands for the equilibrium constant for the complex coming apart. As for NLYISDYKM, the Kd was 11000 nM in the assay with HLA-A*02:06 (setting [1]), no less than 25300 nM with HLA-A*02:03 (setting [1]) and 2790 nM with HLA-A*02:02 (setting [1]).
For TQVKELGIAI, in that order: 3.87 nM, 704 nM and 2170 nM.
Consider IVDKFGKNHI, for which the Kd with HLA-A*02:06 (setting [1]) worked out at 8330 nM; with HLA-A*02:03 (setting [1]) it was 5080 nM; in the assay with HLA-A*02:02 (setting [1]), 2930 nM.
With MLWCKDGHV, the Kd is 362 nM with HLA-A*02:06 (setting [2]), 11 nM with HLA-A*02:03 (setting [2]) and 10.3 nM in the assay with HLA-A*02:02 (setting [2]).
On to SLGKAVHQV, for which, in the assay with HLA-A*02:03 (source organism: Dengue virus 4 Philippines/H241/1956), the Kd worked out at 14.6 nM.
As for AIMAVGMVSI, in the assay with HLA-A*02:03 (setting [3]), the Kd stood at 58 nM.
On to LLFLVLIML, for which the equilibrium dissociation constant (Kd) was 573 nM with HLA-A*02:06 (setting [2]), 1370 nM with HLA-A*02:03 (setting [2]) and 154 nM in the assay with HLA-A*02:02 (setting [2]).
Turning to SARALKAYFT, the Kd was no less than 25700 nM in the assay with HLA-A*02:06 (setting [1]), 7810 nM with HLA-A*02:03 (setting [1]) and no less than 21600 nM in the assay with HLA-A*02:02 (setting [1]).
With SAEDNYLAKL, the Kd in the assay with HLA-A*02:06 (setting [1]) is no less than 69800 nM; with HLA-A*02:03 (setting [1]), no less than 70400 nM; with HLA-A*02:02 (setting [1]), no less than 70000 nM.
On the same counts, the results for VLTSVDIETA are 1410 nM, 421 nM and 62.4 nM.
Turning to RLPSETFPNV, the Kd in the assay with HLA-A*02:06 (setting [1]) was determined as 0.584 nM; with HLA-A*02:03 (setting [1]), 14.1 nM; with HLA-A*02:02 (setting [1]), 173 nM.
As for KLTLKGMSYV, in the assay with HLA-A*02:03 (source organism: Dengue virus 1 Singapore/S275/1990), the Kd turned out to be 53.4 nM.
In the case of FLITGVFDI, the Kd in the assay with HLA-A*02:06 (setting [2]) was determined as 1.48 nM; with HLA-A*02:03 (setting [2]), 0.765 nM; in the assay with HLA-A*02:02 (setting [2]) it was 0.686 nM.
In the case of FLIVAALVFL, the Kd with HLA-A*02:06 (setting [2]) turned out to be 3.64 nM; with HLA-A*02:03 (setting [2]), 162 nM; with HLA-A*02:02 (setting [2]), 3.02 nM.
With TLPELNLSL, the equilibrium dissociation constant (Kd) with HLA-A*02:06 (setting [1]) came to 802 nM; in the assay with HLA-A*02:03 (setting [1]) it was 22.6 nM; in the assay with HLA-A*02:02 (setting [1]), 135 nM.
On the same counts, the results for FTSDYPFYV are 3.58 nM, 3.91 nM and 2.07 nM.
Turning to KVSCTILAV, the Kd with HLA-A*02:06 (setting [4]) came out at 18.2 nM; with HLA-A*02:03 (setting [4]), 57.7 nM.
As for VVIVENDNVI, the Kd in the assay with HLA-A*02:06 (setting [1]) came out at 10700 nM; in the assay with HLA-A*02:03 (setting [1]), 10200 nM; with HLA-A*02:02 (setting [1]), 14700 nM.
On to TMSIYIAVA, for which the Kd with HLA-A*02:06 (setting [1]) came to 786 nM; with HLA-A*02:03 (setting [1]) it was 40.8 nM; in the assay with HLA-A*02:02 (setting [1]), 80.9 nM.
Consider IVTFINDYA, for which the values for the dissociation constant (Kd) in the assay with HLA-A*02:06 (setting [1]), with HLA-A*02:03 (setting [1]) and with HLA-A*02:02 (setting [1]) were 1150 nM, 2960 nM and 140 nM, respectively.
As for NLWNTFTRL, the Kd with HLA-A*02:06 (setting [2]) was found to be 166 nM; with HLA-A*02:03 (setting [2]), 194 nM; in the assay with HLA-A*02:02 (setting [2]) it was 24 nM.
Regarding NIEIMDKEQL, the Kd in the assay with HLA-A*02:06 (setting [1]) was found to be 5650 nM; with HLA-A*02:03 (setting [1]), 15500 nM; with HLA-A*02:02 (setting [1]) it was 3470 nM.
For the sequence ILNPYMPSVV, in the assay with HLA-A*02:03 (source organism: Dengue virus 1 Brazil/97-11/1997), the dissociation constant Kd was determined as 3.26 nM.
With VLIAGIILLI, the Kd in the assay with HLA-A*02:06 (setting [5]) was 1020 nM; in the assay with HLA-A*02:03 (setting [5]), 34.6 nM; with HLA-A*02:02 (setting [5]), 8.84 nM.
For the sequence PLPVSRLVSL, the Kd with HLA-A*02:03 (source organism: Homo sapiens) is 16700 nM.
Regarding DINVIGLIV, the values for the Kd with HLA-A*02:06 (setting [1]), with HLA-A*02:03 (setting [1]) and with HLA-A*02:02 (setting [1]) were 5530 nM, 4050 nM and 9800 nM, respectively.
As for LALTDVEKRI, the Kd in the assay with HLA-A*02:06 (setting [1]) was determined as 2410 nM; with HLA-A*02:03 (setting [1]), 403 nM; in the assay with HLA-A*02:02 (setting [1]), 199 nM.
For the sequence WISDNTHIYL, the dissociation constant (Kd) with HLA-A*02:06 (setting [1]) is 1.77 nM; with HLA-A*02:03 (setting [1]) it was 1.16 nM; with HLA-A*02:02 (setting [1]) it was 0.143 nM.
Turning to ILRNYLRLYI, the Kd in the assay with HLA-A*02:06 (setting [1]) is 65 nM; with HLA-A*02:03 (setting [1]), 0.895 nM; in the assay with HLA-A*02:02 (setting [1]), 0.394 nM.
IQYRQQLELA: the results for the Kd with HLA-A*02:06 (setting [1]), with HLA-A*02:03 (setting [1]) and in the assay with HLA-A*02:02 (setting [1]) were no less than 69800 nM, 8470 nM and 4320 nM, respectively.
Turning to KIYTLIYRQL, the results for the Kd in the assay with HLA-A*02:06 (setting [1]), with HLA-A*02:03 (setting [1]) and with HLA-A*02:02 (setting [1]) were 912 nM, 1030 nM and 707 nM, respectively.
For the sequence VQADSGCVV, the Kd with HLA-A*02:06 (setting [3]) is 79.6 nM.
For VQYRILPMII, the results for the Kd in the assay with HLA-A*02:06 (setting [1]), with HLA-A*02:03 (setting [1]) and with HLA-A*02:02 (setting [1]) were 395 nM, 606 nM and 10100 nM, respectively.
Take QVKDNIISRT: the Kd was no less than 34200 nM with HLA-A*02:06 (setting [1]), 421 nM with HLA-A*02:03 (setting [1]) and 17800 nM with HLA-A*02:02 (setting [1]).
With PTLFGRGVI, the Kd with HLA-A*02:06 (setting [1]) was no less than 64800 nM; with HLA-A*02:03 (setting [1]), 6730 nM; with HLA-A*02:02 (setting [1]) it was no less than 30300 nM.
On the same counts, the results for MLTNAISSRV are 224 nM, 0.105 nM and 53 nM.
Take YASALVLLI: the Kd with HLA-A*02:06 (setting [2]) was 8.7 nM; with HLA-A*02:03 (setting [2]) it was 4.87 nM; with HLA-A*02:02 (setting [2]) it was 3.2 nM.
For the sequence GLSQRHEEKV, the Kd with HLA-A*02:06 (source organism: Homo sapiens) was no less than 53800 nM.
For FTYASALWEI, the dissociation constant Kd in the assay with HLA-A*02:06 (setting [2]) stood at 2.54 nM; with HLA-A*02:03 (setting [2]) it was 6.05 nM; with HLA-A*02:02 (setting [2]) it was 1.6 nM.
Regarding VMYAFTTPLI, the Kd with HLA-A*02:06 (setting [1]) is 11.6 nM; in the assay with HLA-A*02:03 (setting [1]), 4.82 nM; with HLA-A*02:02 (setting [1]), 0.718 nM.
Consider KVYNGIFVDT, for which the Kd with HLA-A*02:06 (setting [1]) was 16400 nM; in the assay with HLA-A*02:03 (setting [1]) it was 1440 nM; with HLA-A*02:02 (setting [1]) it was 111 nM.
With LLATVTGGI, the Kd in the assay with HLA-A*02:03 (setting [3]) was determined as 3.59 nM.
Consider PLPNFSSLNL, for which, in the assay with HLA-A*02:06 (source organism: Homo sapiens), the equilibrium dissociation constant (Kd) is no less than 56600 nM.
Same read-out and setting: as for DLMSSKDDV, the figure is no less than 132000 nM.
SLLNATDIAV: the Kd in the assay with HLA-A*02:06 (setting [6]) came out at 16.6 nM; with HLA-A*02:03 (setting [6]) it was 530 nM.
With LMMATIGIA, in the assay with HLA-A*02:03 (setting [3]), the Kd is 0.49 nM.
Take NQLTYVVIAI: the dissociation constant Kd in the assay with HLA-A*02:06 (setting [3]) was 23.6 nM.
With SAEDNYLAK, the Kd in the assay with HLA-A*11:01 (setting [1]) was 56.1 nM; with HLA-A*33:01 (setting [1]), no less than 77700 nM; with HLA-A*03:01 (setting [1]), no less than 26300 nM; with HLA-A*68:01 (setting [1]), 11400 nM; with HLA-A*31:01 (setting [1]), no less than 53500 nM.
As for VFCNDHKGNR, the dissociation constant (Kd) was no less than 69800 nM with HLA-A*11:01 (setting [1]); 1880 nM with HLA-A*33:01 (setting [1]); no less than 53200 nM with HLA-A*03:01 (setting [1]); 4090 nM in the assay with HLA-A*68:01 (setting [1]); 428 nM with HLA-A*31:01 (setting [1]).
For ISKIYTLIYR, the equilibrium dissociation constant (Kd) was determined as 226 nM with HLA-A*11:01 (setting [1]); 0.458 nM with HLA-A*33:01 (setting [1]); 691 nM with HLA-A*03:01 (setting [1]); 5.02 nM with HLA-A*68:01 (setting [1]); 0.337 nM with HLA-A*31:01 (setting [1]).
Take AVLSAATETY: the dissociation constant (Kd) was 271 nM in the assay with HLA-A*11:01 (setting [1]); 8800 nM with HLA-A*33:01 (setting [1]); 237 nM in the assay with HLA-A*03:01 (setting [1]); 3950 nM in the assay with HLA-A*68:01 (setting [1]); 10400 nM with HLA-A*31:01 (setting [1]).
Regarding TQSVLCVKK, the equilibrium dissociation constant (Kd) with HLA-A*11:01 (setting [1]) is 6.64 nM; with HLA-A*33:01 (setting [1]), no less than 67900 nM; with HLA-A*03:01 (setting [1]), 1040 nM; in the assay with HLA-A*68:01 (setting [1]), 228 nM; in the assay with HLA-A*31:01 (setting [1]) it was 1010 nM.
For LFLLFLEITY, in that order: 3720 nM, 9640 nM, 1960 nM, 274 nM and 3460 nM.
For the sequence NAPIKEFKAK, the Kd was no less than 27700 nM with HLA-A*11:01 (setting [1]); 3310 nM with HLA-A*33:01 (setting [1]); 15600 nM in the assay with HLA-A*03:01 (setting [1]); 187 nM with HLA-A*68:01 (setting [1]); 8830 nM in the assay with HLA-A*31:01 (setting [1]).
For RFVKFNDYR, in that order: 14800 nM, 237 nM, 19800 nM, 38.2 nM and no more than 1 nM.
On the same counts, the results for SIMETIDPVY are 4.36 nM, no less than 36600 nM, 222 nM, 29 nM and 9760 nM.
In the case of ALILAYSNK, the dissociation constant (Kd) with HLA-A*11:01 (setting [2]) is 19.6 nM; with HLA-A*33:01 (setting [2]), no less than 43300 nM; with HLA-A*03:01 (setting [2]) it was 48.6 nM; with HLA-A*68:01 (setting [2]), 4520 nM; with HLA-A*31:01 (setting [2]) it was 3800 nM.
As to YISRDELWAR, the Kd with HLA-A*11:01 (setting [1]) was 792 nM; with HLA-A*33:01 (setting [1]), 0.808 nM; with HLA-A*03:01 (setting [1]), no less than 25600 nM; with HLA-A*68:01 (setting [1]), 32.4 nM; with HLA-A*31:01 (setting [1]), 1.75 nM.
FSTSAADIK: the Kd with HLA-A*11:01 (setting [1]) is 222 nM; in the assay with HLA-A*33:01 (setting [1]) it was no less than 28900 nM; in the assay with HLA-A*03:01 (setting [1]), 2200 nM; in the assay with HLA-A*68:01 (setting [1]) it was 2.57 nM; in the assay with HLA-A*31:01 (setting [1]), no less than 35800 nM.
